According to PMC2346476:

Biological target: recombinant His6-tagged Drosophila PP1α87B (pET28a) (Drosophila) (UniProt P12982)
UniProt P12982, sequence (P12982 whole entry): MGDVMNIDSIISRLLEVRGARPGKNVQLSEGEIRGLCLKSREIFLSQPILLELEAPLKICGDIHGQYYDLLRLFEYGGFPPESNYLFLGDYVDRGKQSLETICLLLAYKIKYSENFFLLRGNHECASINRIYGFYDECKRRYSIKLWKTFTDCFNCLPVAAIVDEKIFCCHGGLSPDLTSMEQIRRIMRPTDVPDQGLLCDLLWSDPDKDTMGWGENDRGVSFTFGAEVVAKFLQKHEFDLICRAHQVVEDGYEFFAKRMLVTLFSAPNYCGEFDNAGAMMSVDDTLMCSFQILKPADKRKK

inhibition of the myelin basic protein phosphatase activity of recombinant PP1α87B by Uri; IC50 of Uri relative to its IC50 against PP1β9C: 25 fold
B1: recombinant His6-tagged Drosophila Uri (pET-28m), bacterially expressed (natural protein)
chain: MDRREDALLQALQTNASETERWEAFKRDNESTIRNLDKFAKNLSVEVMVPIGRKALMPGELIHTNELLVGHYEGYFSACSSHKAKEICQYRLKLAEEQLKKLAVENDLWQKKLHTPFAEGAVPSGDQVEIVEDFNEESHNKWLAEHRKRMRQQKQKERLEREAEPVKKDNEVLRKLEEREMMEELGLDPDNIDEDQLHDMLNQEPLKSTNESSPKSLTQEEEDELWKKLEAEEQNEADELSSEAEESLKTTDNLVRQLMSGETETPSSKKRTAGTNRNVEIQDPISEDDGDDDDEGDQEEEVRTIREQMSLLPNEDREPFLRAQLHVLKAKMRKIQKVNFISDELIHLMNVVVMLEDDLQDLVFEQELEASEEEEEVVENNHLPDEPSKELSTVSESSTNKRRISFALDDEKLEFRREETVAEMLPNAKKNSRDIIKLNAPLKPAGDPQPASIKTKRQTTQDILQKVERNIEFVKENQSVQDFDLLNRIMEESTGLINTLHISFTHSGAIPSPSSDQSDGIPGKPSDFYVRYEKDRARPNDSFPIYVNGFEGEEHVKVPIMSEAARGSAYEDPRSQFSKPNSSEICFTHSGSITPTSNDQSDDIPGNPFDFYEKYEKDRAKFSKSNSSEGDATDPESATKSILRNKSAVDLEPHNVNQQPKKGRKVRNQKKKERTLDDDLRDMSAYQKVMHDLVEKEPTAPEPLPPGKFIDSHAPKKRVSRFKEQRALNKT
